Assay in all cases: phage adsorption assay; 10^6 pfu of χ phage added to 10 ml LB cultures of motile cells at OD600 2.0, shaken ten minutes at 37°C; cells pelleted at 15,000 x g and phage left in the supernatant titered by plaque assay; adsorption = (1 - pfu supernatant with cells/pfu control without cells) * 100%
Assay [1] concerns the target ser. Enteritidis FliC with both D2 domains and D3 replaced by their ser. Typhimurium equivalents (strain FliC11) (Salmonella enterica serotype Enteritidis P125109 | Salmonella enterica serotype Typhimurium 14028s) (UniProt Q06972).
In assay [2] the target is ser. Typhimurium FliC with a deletion of D3 (strain FliC3) (Salmonella enterica serotype Typhimurium 14028s) (UniProt P06179).
Assay [3] has as its target ser. Typhimurium FliC with D3 replaced by D3 from ser. Enteritidis FliC (strain FliC6) (Salmonella enterica serotype Typhimurium 14028s | Salmonella enterica serotype Enteritidis P125109) (UniProt P06179).
Assay [4] addresses wild type ser. Typhimurium FliC (strain FliC1) (Salmonella enterica serotype Typhimurium 14028s) (UniProt P06179).

On to Bacteriophage χ (Chi), for which the percentage of phage particles adsorbed after ten minutes in assay [1] is 48%; in assay [2], 95%; in assay [3] it was 67%; in assay [4], 99%.
